In article PMC5527654:

Tests used:
[1] = molecular target: T1, 6xHis-PA3225 (Pseudomonas aeruginosa UCBPP-PA14) (UniProt A0A0H2ZDR5); test: competition
T1 sequence: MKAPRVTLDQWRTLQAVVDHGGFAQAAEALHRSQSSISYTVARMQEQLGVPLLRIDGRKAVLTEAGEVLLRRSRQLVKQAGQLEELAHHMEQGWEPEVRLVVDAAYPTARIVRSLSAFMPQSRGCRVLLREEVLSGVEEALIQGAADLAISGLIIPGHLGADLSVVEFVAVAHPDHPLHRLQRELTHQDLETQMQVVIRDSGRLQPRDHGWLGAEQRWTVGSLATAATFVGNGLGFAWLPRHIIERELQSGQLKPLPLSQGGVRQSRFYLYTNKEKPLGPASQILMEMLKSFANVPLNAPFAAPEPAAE

[2] = molecular target: T1, 6xHis-PA3225 (Pseudomonas aeruginosa UCBPP-PA14); test: EMSA

| Sequence | binding [1] | binding [2] |
| --- | --- | --- |
| ATGGCTGGCGTTCGTTGCATAGCGTTGTCCTCATGAGCGAAAGCGGCCGATGCAGCGTGAAGGCGCTGCACCGGCTCGAAGAAGGCAGGCAAAATACTTACATTCATAGGTGTTTGTAAACGTCCGAAAGC (double strand) [PmexAB-oprM probe 4 unlabeled] | no binding |  |
| TAGTTGACTGGATCAACCACATTTACATTAGGTTTACTCGGCCAAACCAATGAACTACCCCGTGAATCCCGACCTGATGCCCGCGCTGATGGCGGTCTTCCAGCATGTACGGACGCGCATCCAGAGCGAGCTCGATT (double strand) [PmexAB-oprM probe 2 unlabeled] | no binding |  |
| ATGGCTGGCGTTCGTTGCATAGCGTTGTCCTCATGAGCGAAAGCGGCCGATGCAGCGTGAAGGCGCTGCACCGGCTCGAAGAAGGCAGGCAAAATACTTACATTCATAGGTGTTTGTAAACGTCCGAAAGC (double strand) [Cy5-PmexAB-oprM probe 4] |  | no binding |
| ATGTGGTTGATCCAGTCAACTATTTTGCTTATTTTAGTTGACCTTATCAACCTTGTTTCAGGTTCTGAATATGGGCCATGGCGCCGGGTGGATAACCGGCCATCGAGCTAAAACGTTTCAGGTGTTTTCACGCGAGGCTTTCGGACGTTTACA (double strand) [Cy5-PmexAB-oprM probe 3] |  | binds |
| TAGTTGACTGGATCAACCACATTTACATTAGGTTTACTCGGCCAAACCAATGAACTACCCCGTGAATCCCGACCTGATGCCCGCGCTGATGGCGGTCTTCCAGCATGTACGGACGCGCATCCAGAGCGAGCTCGATT (double strand) [Cy5-PmexAB-oprM probe 2] |  | no binding |
| ATGTGGTTGATCCAGTCAACTATTTTGCTTATTTTAGTTGACCTTATCAACCTTGTTTCAGGTTCTGAATATGGGCCATGGCGCCGGGTGGATAACCGGCCATCGAGCTAAAACGTTTCAGGTGTTTTCACGCGAGGCTTTCGGACGTTTACA (double strand) [PmexAB-oprM probe 3 unlabeled] | binds |  |
